{"source": "patent US20160319321", "proteins": {"B1": {"name": "bovine Enterokinase light chain variant (C112A, L134K, I135K) (protein)", "chain": "IVGGSDSREGAWPWVVALYFDDQQVCGASLVSRDWLVSAAHCVYGRNMEPSKWKAVLGLHMASNLTSPQIETRLIDQIVINPHYNKRRKNNDIAMMHLEMKVNYTDYIQPIALPEENQVFPPGRICSIAGWGAKKYQGSTADVLQEADVPLLSNEKCQQQMPEYNITENMVCAGYEAGGVDSCQGDSGGPLMCQENNRWLLAGVTSFGYQCALPNRPGVYARVPRFTEWIQSFLH"}}, "key": {"[1]": {"target": "T1, DVEPGQPLYDDDDK-[Arg34]GLP-1(9-37)", "T1 chain": "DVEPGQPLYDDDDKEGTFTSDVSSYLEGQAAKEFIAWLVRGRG"}, "[2]": {"target": "T2, DVEPGQPLYDEGDR-[Arg34]GLP-1(9-37)", "T2 chain": "T1 chain with D11E, D12G, K14R"}, "[3]": {"target": "T3, DVKPGEPLYDDDDK-[Arg34]GLP-1(9-37)", "T3 chain": "T1 chain with E3K, Q6E"}, "[4]": {"target": "T4, DVKPGQELYDEGDR-[Arg34]GLP-1(9-37)", "T4 chain": "T1 chain with E3K, P7E, D11E, D12G, K14R"}, "[5]": {"target": "T5, DVKPGQPLADEGDR-[Arg34]GLP-1(9-37)", "T5 chain": "T1 chain with E3K, Y9A, D11E, D12G, K14R"}, "[6]": {"target": "T6, DVKPGQPLYDDDDK-[Arg34]GLP-1(9-37)", "T6 chain": "T1 chain with E3K"}, "[7]": {"target": "T7, DVKPGQPLYDEGDR-[Arg34]GLP-1(9-37)", "T7 chain": "T1 chain with E3K, D11E, D12G, K14R"}, "[8]": {"target": "T8, Lys(Dnp)-ADEGDR-HAEGT-Lys(Abz)amide", "T8 chain": "KADEGDRHAEGTK"}, "[9]": {"target": "T9, Lys(Dnp)-DDEGDR-HAEGT-Lys(Abz)amide", "T9 chain": "KDDEGDRHAEGTK"}, "[10]": {"target": "T10, Lys(Dnp)-DDGDR-HGTFT-Lys(Abz)amide", "T10 chain": "KDDGDRHGTFTK"}, "[11]": {"target": "T11, Lys(Dnp)-DEGDR-HAEGT-Lys(Abz)amide", "T11 chain": "KDEGDRHAEGTK"}, "[12]": {"target": "T12, Lys(Dnp)-DEGDR-HGTFT-Lys(Abz)amide", "T12 chain": "KDEGDRHGTFTK"}, "[13]": {"target": "T13, Lys(Dnp)-DFGDR-EGTFT-Lys(Abz)amide", "T13 chain": "KDFGDREGTFTK"}, "[14]": {"target": "T14, Lys(Dnp)-DFGDR-HGEGT-Lys(Abz)amide", "T14 chain": "KDFGDRHGEGTK"}, "[15]": {"target": "T15, Lys(Dnp)-DLGDR-QGTFT-Lys(Abz)amide", "T15 chain": "KDLGDRQGTFTK"}, "[16]": {"target": "T16, Lys(Dnp)-DQGDR-EGTFT-Lys(Abz)amide", "T16 chain": "KDQGDREGTFTK"}, "[17]": {"target": "T17, Lys(Dnp)-DWGDR-EGTFT-Lys(Abz)amide", "T17 chain": "KDWGDREGTFTK"}, "[18]": {"target": "T18, Lys(Dnp)-DWGDR-HAEGT-Lys(Abz)amide", "T18 chain": "KDWGDRHAEGTK"}, "[19]": {"target": "T19, Lys(Dnp)-DYGDR-EGTFT-Lys(Abz)amide", "T19 chain": "KDYGDREGTFTK"}, "[20]": {"target": "T20, Lys(Dnp)-DYGDR-HAEGT-Lys(Abz)amide", "T20 chain": "KDYGDRHAEGTK"}, "[21]": {"target": "T21, Lys(Dnp)-DYGDR-HGEGT-Lys(Abz)amide", "T21 chain": "KDYGDRHGEGTK"}, "[22]": {"target": "T22, Lys(Dnp)-EDEGDR-HAEGT-Lys(Abz)amide", "T22 chain": "KEDEGDRHAEGTK"}, "[23]": {"target": "T23, Lys(Dnp)-EDGDR-HGEGT-Lys(Abz)amide", "T23 chain": "KEDGDRHGEGTK"}, "[24]": {"target": "T24, Lys(Dnp)-EGGDR-EGTFT-Lys(Abz)amide", "T24 chain": "KEGGDREGTFTK"}, "[25]": {"target": "T25, Lys(Dnp)-EGGDR-HGEGT-Lys(Abz)amide", "T25 chain": "KEGGDRHGEGTK"}, "[26]": {"target": "T26, Lys(Dnp)-ELGDR-HGEGT-Lys(Abz)amide", "T26 chain": "KELGDRHGEGTK"}, "[27]": {"target": "T27, Lys(Dnp)-EQGDR-HGEGT-Lys(Abz)amide", "T27 chain": "KEQGDRHGEGTK"}, "[28]": {"target": "T28, Lys(Dnp)-ESGDR-EGTFT-Lys(Abz)amide", "T28 chain": "KESGDREGTFTK"}, "[29]": {"target": "T29, Lys(Dnp)-HDEGDR-HAEGT-Lys(Abz)amide", "T29 chain": "KHDEGDRHAEGTK"}, "[30]": {"target": "T30, Lys(Dnp)-HEGDR-HAEGT-Lys(Abz)amide", "T30 chain": "KHEGDRHAEGTK"}, "[31]": {"target": "T31, Lys(Dnp)-KDEGDR-HAEGT-Lys(Abz)amide", "T31 chain": "KKDEGDRHAEGTK"}, "[32]": {"target": "T32, Lys(Dnp)-LDEGDR-HAEGT-Lys(Abz)amide", "T32 chain": "KLDEGDRHAEGTK"}, "[33]": {"target": "T33, Lys(Dnp)-LEGDR-HAEGT-Lys(Abz)amide", "T33 chain": "KLEGDRHAEGTK"}, "[34]": {"target": "T34, Lys(Dnp)-NEGDR-HAEGT-Lys(Abz)amide", "T34 chain": "KNEGDRHAEGTK"}, "[35]": {"target": "T35, Lys(Dnp)-NYTDRHAEGT-Lys(Abz)amide", "T35 chain": "KNYTDRHAEGTK"}, "[36]": {"target": "T36, Lys(Dnp)-QEGDR-HAEGT-Lys(Abz)amide", "T36 chain": "KQEGDRHAEGTK"}, "[37]": {"target": "T37, Lys(Dnp)-RDEGDR-HAEGT-Lys(Abz)amide", "T37 chain": "KRDEGDRHAEGTK"}, "[38]": {"target": "T38, Lys(Dnp)-SDEGDR-HAEGT-Lys(Abz)amide", "T38 chain": "KSDEGDRHAEGTK"}, "[39]": {"target": "T39, Lys(Dnp)-TDEGDR-HAEGT-Lys(Abz)amide", "T39 chain": "KTDEGDRHAEGTK"}, "[40]": {"target": "T40, Lys(Dnp)-TEGDR-HAEGT-Lys(Abz)amide", "T40 chain": "KTEGDRHAEGTK"}}, "note": "Substitutions are numbered along the chain they refer to. Names and notes keep the numbering of the source. Values joined by “and” are separate entries in the source; they are usually repeats but may differ in a detail not shown here. Equal entries are not always repeated."}
{"protein": "B1", "values": [{"measurement": "Activity (%)", "setting": "[1]", "value": 203, "unit": "%"}, {"measurement": "Activity (%)", "setting": "[2]", "value": 951, "unit": "%"}, {"measurement": "Activity (%)", "setting": "[3]", "value": 162, "unit": "%"}, {"measurement": "Activity (%)", "setting": "[4]", "value": 1040, "unit": "%"}, {"measurement": "Activity (%)", "setting": "[5]", "value": 476, "unit": "%"}, {"measurement": "Activity (%)", "setting": "[6]", "value": 136, "unit": "%"}, {"measurement": "Activity (%)", "setting": "[7]", "value": 707, "unit": "%"}, {"measurement": "Activity (%)", "setting": "[8]", "value": 100, "unit": "%"}, {"measurement": "Activity (%)", "setting": "[9]", "value": 113, "unit": "%"}, {"measurement": "Activity (%)", "setting": "[10]", "value": 402, "unit": "%"}, {"measurement": "Activity (%)", "setting": "[11]", "value": "1100% and 942%"}, {"measurement": "Activity (%)", "setting": "[12]", "value": 392, "unit": "%"}, {"measurement": "Activity (%)", "setting": "[13]", "value": 419, "unit": "%"}, {"measurement": "Activity (%)", "setting": "[14]", "value": 253, "unit": "%"}, {"measurement": "Activity (%)", "setting": "[15]", "value": 222, "unit": "%"}, {"measurement": "Activity (%)", "setting": "[16]", "value": 412, "unit": "%"}, {"measurement": "Activity (%)", "setting": "[17]", "value": 410, "unit": "%"}, {"measurement": "Activity (%)", "setting": "[18]", "value": 513, "unit": "%"}, {"measurement": "Activity (%)", "setting": "[19]", "value": 373, "unit": "%"}, {"measurement": "Activity (%)", "setting": "[20]", "value": 505, "unit": "%"}, {"measurement": "Activity (%)", "setting": "[21]", "value": 469, "unit": "%"}, {"measurement": "Activity (%)", "setting": "[22]", "value": 159, "unit": "%"}, {"measurement": "Activity (%)", "setting": "[23]", "value": 462, "unit": "%"}, {"measurement": "Activity (%)", "setting": "[24]", "value": 380, "unit": "%"}, {"measurement": "Activity (%)", "setting": "[25]", "value": 279, "unit": "%"}, {"measurement": "Activity (%)", "setting": "[26]", "value": 502, "unit": "%"}, {"measurement": "Activity (%)", "setting": "[27]", "value": 432, "unit": "%"}, {"measurement": "Activity (%)", "setting": "[28]", "value": 362, "unit": "%"}, {"measurement": "Activity (%)", "setting": "[29]", "value": 204, "unit": "%"}, {"measurement": "Activity (%)", "setting": "[30]", "value": 468, "unit": "%"}, {"measurement": "Activity (%)", "setting": "[31]", "value": 175, "unit": "%"}, {"measurement": "Activity (%)", "setting": "[32]", "value": 259, "unit": "%"}, {"measurement": "Activity (%)", "setting": "[33]", "value": 398, "unit": "%"}, {"measurement": "Activity (%)", "setting": "[34]", "value": 457, "unit": "%"}, {"measurement": "Activity (%)", "setting": "[35]", "value": 59, "unit": "%"}, {"measurement": "Activity (%)", "setting": "[36]", "value": 551, "unit": "%"}, {"measurement": "Activity (%)", "setting": "[37]", "value": 222, "unit": "%"}, {"measurement": "Activity (%)", "setting": "[38]", "value": 222, "unit": "%"}, {"measurement": "Activity (%)", "setting": "[39]", "value": 237, "unit": "%"}, {"measurement": "Activity (%)", "setting": "[40]", "value": 393, "unit": "%"}]}
